B1: Azoarcus group I ribozyme (parent)
chain: GUGCCUUGCGCCGGGAAACCACGCAAGGGAUGGUGUCAAAUUCGGCGAAACCUAAGCGCCCGCCCGGGCGUAUGGCAACGCCGAGCCAAGCUUCGGCGCCUGCGCCGAUGAAGGUGUAGAGACUAGACGGCACCCACCUAAGGCAAACGCUAUGGUGAAGGCAUAGUCCAGGGAGUGGCGAAAGUCACACAAACCGG

The values below come from the RNAGym collection of RNA variant scans (doi:10.1093/molbev/msab373).

In the series the parent is B1. Description: reverse-splicing fitness (ratio to wild type); higher = more active; in vitro selection; Mg2+ level not given. A digest of the protocol: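 An in vitro group I ribozyme library with randomized positions was T7-transcribed and gel-purified. In triplicate, 10 pmol RNA in EPPS pH 7.5 was reacted with 50 pmoles of a 30-nt RNA substrate for 1 h at 37 °C across several added MgCl2 levels (1–48 mM), then stopped with EDTA. Products were reverse transcribed from a substrate-complementary primer, PCR-amplified and sequenced (HiSeq 4000). Fitness is a variant's read proportion after selection over that before, normalised to wild type.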
In the case of C82G A111C A145U, the reverse-splicing fitness is 0.283. As for C82G A111C A145U C150A C169A U176C, the reverse-splicing fitness worked out at 0.0134.

For the variant C82G A111C A145U C150A C169A U176G, the reverse-splicing fitness was 0.00941. In the case of C82G A111C A145U C150A C169A U176A, the reverse-splicing fitness was determined as 0.0135. For C82G A111C A145G C150G, the reverse-splicing fitness turned out to be 0.0266. To C82G A111C A145G C150U belongs 0.205. Turning to C82G A111C A145G C150A, the reverse-splicing fitness was 0.0364. In the case of C82G A111C A145C C169A U176A, the reverse-splicing fitness stood at 0.0184. Take C82G A111C A145C C169A U176G: the reverse-splicing fitness came out at 0.00713. Turning to C82G A111C A145C C169A U176C, the reverse-splicing fitness came out at 0.015.

On to C82G A111C A145C C150U C169G U176C, for which the reverse-splicing fitness stood at 0.0189.

Turning to C82G A111C A145C C150U C169G U176G, the reverse-splicing fitness was 0.00873. In the case of C82G A111C A145C C150U C169G U176A, the reverse-splicing fitness is 0.0245.

On to C82G A111C A145U C150A, for which the reverse-splicing fitness came out at 0.0253. C82G A111C A145U C150G: the reverse-splicing fitness was 0.0245.

In the case of C82G A111C A145U C150U, the reverse-splicing fitness worked out at 0.172. On to C82G A111C A145G C150G C169G, for which the reverse-splicing fitness was found to be 0.00707. Regarding C82G A111C A145G C150G C169U, the reverse-splicing fitness is 0.0089.

In the case of C82G A111C A145G C150G C169A, the reverse-splicing fitness came out at 0.0091. In the case of C82G A111C A145C C150U C169A U176G, the reverse-splicing fitness amounted to 0.00839.

For C82G A111C A145C C150U C169A U176C, the reverse-splicing fitness came out at 0.0132. Turning to C82G A111C A145C C150U C169A U176A, the reverse-splicing fitness is 0.0156. Take C82G A111C A145G C169A U176A: the reverse-splicing fitness amounted to 0.0222. For the variant C82G A111C A145G C169A U176G, the reverse-splicing fitness was determined as 0.00852.

For the variant C82G A111C A145G C169A U176C, the reverse-splicing fitness is 0.0311.

As to C82G A111C A145U C150A U176A, the reverse-splicing fitness is 0.0202. For the variant C82G A111C A145U C150A U176G, the reverse-splicing fitness was determined as 0.0105. As for C82G A111C A145U C150A U176C, the figure is 0.0248.

For C82G A111C A145G C169U U176C, the reverse-splicing fitness amounted to 0.0148. As for C82G A111C A145G C169U U176G, the figure is 0.00729; as for C82G A111C A145G C169U U176A, 0.0152. As to C82G A111C A145U C169A U176C, the reverse-splicing fitness amounted to 0.0153. In the case of C82G A111C A145U C169A U176A, the reverse-splicing fitness was determined as 0.0149.

C82G A111C A145U C169A U176G: the reverse-splicing fitness was 0.00775. As for C82G A111C A145U C150G C169G U176A, the figure is 0.00806.

For the variant C82G A111C A145U C150G C169G U176G, the reverse-splicing fitness came out at 0.00802. Consider C82G A111C A145U C150G C169G U176C, for which the reverse-splicing fitness turned out to be 0.00714.

With C82G A111C A145G C150U C169G U176C, the reverse-splicing fitness was determined as 0.0159. For C82G A111C A145G C150U C169G U176A, the reverse-splicing fitness is 0.0107. As to C82G A111C A145G C150U C169G U176G, the reverse-splicing fitness stood at 0.00611. As to C82G A111C A145C C150G C169U U176G, the reverse-splicing fitness worked out at 0.0071. As to C82G A111C A145U C150A C169A, the reverse-splicing fitness is 0.00994.

Regarding C82G A111C A145U C150A C169U, the reverse-splicing fitness was determined as 0.0112. Regarding C82G A111C A145U C150A C169G, the reverse-splicing fitness is 0.0077. To C82G A111C A145C C169G U176G belongs 0.00663.

In the case of C82G A111C A145C C169G U176A, the reverse-splicing fitness was 0.0274. As for C82G A111C A145C C169G U176C, the figure is 0.0197; as for C82G A111C A145C C150U C169U U176A, 0.013; as for C82G A111C A145C C150U C169U U176C, 0.0131. On to C82G A111C A145C C150U C169U U176G, for which the reverse-splicing fitness came to 0.00739.

As to C82G A111C A145G U176A, the reverse-splicing fitness came out at 0.129. Regarding C82G A111C A145G U176G, the reverse-splicing fitness is 0.0463.

Take C82G A111C A145G U176C: the reverse-splicing fitness was determined as 0.147. In the case of C82G A111C A145G C150G C169G U176G, the reverse-splicing fitness was found to be 0.00603. On to C82G A111C A145G C150G C169G U176A, for which the reverse-splicing fitness is 0.00869. To C82G A111C A145G C150G C169G U176C belongs 0.0117. As for C82G A111C A145U C150G C169A U176G, the figure is 0.00734; as for C82G A111C A145U C150G C169A U176C, 0.0126; as for C82G A111C A145U C150G C169A U176A, 0.00956. As for C82G A111C C150A, the figure is 0.0254; as for C82G A111C A145U C150G C169G, 0.0063. C82G A111C A145U C150G C169U: the reverse-splicing fitness was 0.00891.

Consider C82G A111C A145U C150G C169A, for which the reverse-splicing fitness came out at 0.00796. With C82G A111C A145C C169A, the reverse-splicing fitness turned out to be 0.00847.

On to C82G A111C A145C C169U, for which the reverse-splicing fitness worked out at 0.0125. With C82G A111C A145C C169G, the reverse-splicing fitness amounted to 0.00898. Take C82G A111C A145G C150G C169A U176A: the reverse-splicing fitness was determined as 0.0115. As for C82G A111C A145G C150G C169A U176G, the figure is 0.00829; as for C82G A111C A145G C150G C169A U176C, 0.0129. Take C82G A111C A145U C150A C169G U176C: the reverse-splicing fitness is 0.0181. Regarding C82G A111C A145U C150A C169G U176A, the reverse-splicing fitness amounted to 0.0157. As for C82G A111C A145U C150A C169G U176G, the figure is 0.0081. C82G A111C A145G C150A C169A: the reverse-splicing fitness stood at 0.00903.

Consider C82G A111C A145G C150A C169G, for which the reverse-splicing fitness came out at 0.00789. As for C82G A111C A145G C150A C169U, the reverse-splicing fitness amounted to 0.00998. Regarding C82G A111C A145G C150A C169U U176C, the reverse-splicing fitness worked out at 0.0161.

With C82G A111C A145G C150A C169U U176G, the reverse-splicing fitness was 0.00863.

As to C82G A111C A145G C150A C169U U176A, the reverse-splicing fitness amounted to 0.0153. As for C82G A111C A145G C169G U176C, the reverse-splicing fitness is 0.0315. On to C82G A111C A145G C169G U176G, for which the reverse-splicing fitness came out at 0.00727. As for C82G A111C A145G C169G U176A, the figure is 0.0207; as for C82G A111C A145U C150G C169U U176C, 0.0123. As for C82G A111C A145U C150G C169U U176G, the figure is 0.00704; as for C82G A111C A145U C150G C169U U176A, 0.00811.
